Patent US20220033483A1 (GUAGNDONG FEIPENG BIOLOGICAL, published 2022)
Like-named read-outs stand apart in the source and are kept apart here.

How the values were obtained:
[1] = molecular target: T1, cTnI quality control product recombinant protein (human, UniProt P19429 1-210, limits assumed); assay: AMC biosensor, antibody on sensor
T1 construct: the assay paragraphs only say cTnI; also called cardiac troponin I; cTnI antigen
Description: (§1) Operating process: it is equilibrated in Buffer 1 (PBST) for 60 s, the antibody is immobilized in an antibody solution for 300 s, incubated in Buffer 2 (PBST) for 180 s, bound in antigen solution for 420 s, dissociated in the Buffer 2 for 1200 s, 10 mM of GLY solution with pH 1.69 and Buffer 3 are used for sensor regeneration, and data is output.

[2] = molecular target: T1, cTnI quality control product …; assay: AMC biosensor, antibody on sensor; remark: listed apart in the source
Description: as §1

[3] = molecular target: T1, cTnI quality control product …; assay: capture ELISA, antibody 1.372 ng/ml, cTnI 0.15 ug/ml
Description: (§2) After mutation, the antibody activity is detected, 1 μg/ml of goat anti-mouse IgG is diluted with coating solution to coat a microwell plate, 100 μL per well, and overnight at 4 DEG C.; on the next day, it is washed twice with washing solution, and patted dry; blocking solution (20% BSA+80% PBS) is added, 120 μL per well, 37 DEG C., and 1 h, and patted dry; a diluted cTnI monoclonal antibody is added, 100 μL/well, 37 DEG C., and 60 min; liquid in the plate is shaken off, patted dry, and […] of mouse negative blood is added for blocking, 120 μl per well, 37 DEG C., 1 h; liquid in the plate is shaken off, patted dry, a diluted cTnI antigen (0.15 μg/ml) is added, 100 μL per well, 37 DEG C., and 40 min; it is washed for 5 times with the washing solution, and patted dry; another strain of the cTnI monoclonal antibody (1:5K) labeled with HRP is added, 100 μL per well, 37 DEG C., and 30 min; color developing solution A (50 μL/well) is added, color developing solution B (50 μL/well) is added, 10 min; stop solution is added, 50 μL/well; and a OD value is read at 450 nm (refer to 630 nm) on a microplate reader.

[4] = molecular target: T1, cTnI quality control product …; assay: capture ELISA, antibody 4.115 ng/ml, cTnI 0.15 ug/ml
Description: as §2

[5] = molecular target: T1, cTnI quality control product …; assay: capture ELISA, antibody 12.346 ng/ml, cTnI 0.15 ug/ml
Description: as §2

[6] = molecular target: T1, cTnI quality control product …; assay: capture ELISA, antibody 37.037 ng/ml, cTnI 0.15 ug/ml
Description: as §2

[7] = molecular target: T1, cTnI quality control product …; assay: capture ELISA, antibody 111.111 ng/ml, cTnI 0.15 ug/ml
Description: as §2

[8] = molecular target: T1, cTnI quality control product …; assay: capture ELISA, antibody 333.333 ng/ml, cTnI 0.15 ug/ml
Description: as §2

[9] = molecular target: T1, cTnI quality control product …; assay: capture ELISA, antibody 1000.000 ng/ml, cTnI 0.15 ug/ml
Description: as §2

[10] = molecular target: T1, cTnI quality control product …; assay: capture ELISA, antibody 0.000 ng/ml (blank), cTnI 0.15 ug/ml
Description: as §2

T1 sequence (P19429 whole entry): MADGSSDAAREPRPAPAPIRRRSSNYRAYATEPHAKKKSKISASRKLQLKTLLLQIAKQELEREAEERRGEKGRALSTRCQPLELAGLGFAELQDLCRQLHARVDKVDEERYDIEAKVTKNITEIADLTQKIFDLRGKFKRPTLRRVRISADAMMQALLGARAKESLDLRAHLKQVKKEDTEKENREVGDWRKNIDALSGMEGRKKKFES

Row | Kd [1] [nM] | koff [1] [s⁻¹] | kon [1] [M⁻¹ s⁻¹] | Kd [2] [nM] | koff [2] [s⁻¹] | kon [2] [M⁻¹ s⁻¹] | OD 450 nm [3] [OD] | OD 450 nm [4] [OD] | OD 450 nm [5] [OD] | OD 450 nm [6] [OD] | OD 450 nm [7] [OD] | OD 450 nm [8] [OD] | OD 450 nm [9] [OD] | OD 450 nm [10] [OD] | Binder
1 | 12.9 | 0.000368 | 28600 | 12.9 | 0.000368 | 28600 | 0.174 | 0.475 | 0.947 | 1.7 | 1.88 | 2.01 | 2.1 | 0.144 | Anti-cTnI 7B9 monoclonal antibody (recombinant, Sample 1) (antibody, mouse IgG1, kappa, V domains shown, Recombinant mouse antibody expressed in CHO cells; also called WT; Anti-cTnI 7B9 antibody) VH: QVQLQQSGTELAKPGASVKFSCKASDYTFSTYWMYWIKQRPGQGLEWIGYLNPSSGHTEYNQRFKDKATLTADKSSSTAYMQLNSLTSEDSAVYYCARKYFGPFAMDYWGQGTSVTVSS VL: EIFLTQSPAIMSASPGEKVTMTCSASTTVSYAHWYQQKSGTSPKRWLYDSSKIASGIPVRFSGSGSGTSYSLTISSMEAEDAATYYCQNWSTQPYTFGGGTKLEIKR
2 | – | – | – | 6.07 | 8.86e-05 | 14600 | – | – | – | – | – | – | – | – | Mutation 1-56 (antibody, V domains shown) VH: QVQLQQSGTELAKPGASVKFSCKASGYTFTTYWMYWIKQRPGQGLEWIGYLNPSSGHTDYNQRFKDKATLTADKSSSTAYMQLNSLTSEDSAVYYCARRYWGPFGMDYWGQGTSVTVSS VL: EIFLTQSPAIMSASPGEKVTMTCSASTSVSYVHWYQQKSGTSPKRWIYDTSKIASGIPVRFSGSGSGTSYSLTISSMEAEDAATYYCQQWSSNPYTFGGGTKLEIKR
3 | – | – | – | 2.32 | 6.03e-05 | 26000 | – | – | – | – | – | – | – | – | Mutation 1-6 (antibody, V domains shown) VH: QVQLQQSGTELAKPGASVKFSCKASGYTFTSYWMYWIKQRPGQGLEWIGYLNPSSGHTDYNQRFKDKATLTADKSSSTAYMQLNSLTSEDSAVYYCARRYFGPFGMDYWGQGTSVTVSS VL: EIFLTQSPAIMSASPGEKVTMTCSASSTVSYVHWYQQKSGTSPKRWLYDTSKLASGIPVRFSGSGSGTSYSLTISSMEAEDAATYYCQQWSTNPYTFGGGTKLEIKR
4 | – | – | – | 7.96 | 0.000302 | 37900 | – | – | – | – | – | – | – | – | Mutation 1-2 (antibody, V domains shown) VH: QVQLQQSGTELAKPGASVKFSCKASGYTFTSYWMYWIKQRPGQGLEWIGYINPSSGHTDYNQRFKDKATLTADKSSSTAYMQLNSLTSEDSAVYYCARRYWGPFGMDYWGQGTSVTVSS VL: EIFLTQSPAIMSASPGEKVTMTCSASSTVSYVHWYQQKSGTSPKRWLYDTSKLASGIPVRFSGSGSGTSYSLTISSMEAEDAATYYCQQWSSQPYTFGGGTKLEIKR
5 | – | – | – | 2.92 | 4.05e-05 | 13900 | – | – | – | – | – | – | – | – | Mutation 1-7 (antibody, V domains shown) VH: QVQLQQSGTELAKPGASVKFSCKASGYTFTTYWMYWIKQRPGQGLEWIGYLNPSTGHTDYNQKFKDKATLTADKSSSTAYMQLNSLTSEDSAVYYCARRYYGPFGMDYWGQGTSVTVSS VL: EIFLTQSPAIMSASPGEKVTMTCSASTSVSYVHWYQQKSGTSPKRWLYDTSKLASGIPVRFSGSGSGTSYSLTISSMEAEDAATYYCQQWSTNPYTFGGGTKLEIKR
6 | – | – | – | 9.45 | 0.000181 | 19200 | – | – | – | – | – | – | – | – | Mutation 1-3 (antibody, V domains shown) VH: QVQLQQSGTELAKPGASVKFSCKASGYTFTTYWMYWIKQRPGQGLEWIGYINPSTGHTDYNQKFKDKATLTADKSSSTAYMQLNSLTSEDSAVYYCARKYFGPFGMDYWGQGTSVTVSS VL: EIFLTQSPAIMSASPGEKVTMTCSASTSVSYVHWYQQKSGTSPKRWIYDTSKLASGIPVRFSGSGSGTSYSLTISSMEAEDAATYYCQQWSSNPYTFGGGTKLEIKR
7 | – | – | – | 0.238 | 1.17e-05 | 49300 | – | – | – | – | – | – | – | – | Mutation 1-5 (antibody, V domains shown) VH: QVQLQQSGTELAKPGASVKFSCKASGYTFSSYWMYWIKQRPGQGLEWIGYLNPSTGHTDYNQKFKDKATLTADKSSSTAYMQLNSLTSEDSAVYYCARKYWGPFGMDYWGQGTSVTVSS VL: EIFLTQSPAIMSASPGEKVTMTCSASSSVSYVHWYQQKSGTSPKRWIYDTSKIASGIPVRFSGSGSGTSYSLTISSMEAEDAATYYCQQWSTNPYTFGGGTKLEIKR
8 | – | – | – | 0.221 | 4.49e-06 | 20300 | – | – | – | – | – | – | – | – | Mutation 1-11 (antibody, V domains shown) VH: QVQLQQSGTELAKPGASVKFSCKASGYTFTSYWMYWIKQRPGQGLEWIGYINPSSGHTDYNQKFKDKATLTADKSSSTAYMQLNSLTSEDSAVYYCARKYWGPFGMDYWGQGTSVTVSS VL: EIFLTQSPAIMSASPGEKVTMTCSASTSVSYVHWYQQKSGTSPKRWIYDTSKLASGIPVRFSGSGSGTSYSLTISSMEAEDAATYYCQQWSTQPYTFGGGTKLEIKR
9 | 9.96 | 0.000263 | 26400 | 9.96 | 0.000263 | 26400 | 1.03 | 1.97 | 2.34 | 2.36 | 2.4 | 2.4 | 2.34 | 0.193 | Mutation 1 (antibody, V domains shown, other CDR sites as WT) VH: QVQLQQSGTELAKPGASVKFSCKASGYTFSTYWMYWIKQRPGQGLEWIGYLNPSSGHTDYNQRFKDKATLTADKSSSTAYMQLNSLTSEDSAVYYCARKYFGPFGMDYWGQGTSVTVSS VL: EIFLTQSPAIMSASPGEKVTMTCSASTTVSYVHWYQQKSGTSPKRWLYDTSKIASGIPVRFSGSGSGTSYSLTISSMEAEDAATYYCQQWSTQPYTFGGGTKLEIKR
10 | 17.8 | 0.000481 | 27000 | – | – | – | 0.367 | 0.978 | 1.41 | 2 | 2 | 2.11 | 2.21 | 0.204 | Mutation 3 (antibody, V domains shown, other CDR sites as WT) VH: QVQLQQSGTELAKPGASVKFSCKASIYTFSTYWMYWIKQRPGQGLEWIGYLNPSSGHTGYNQRFKDKATLTADKSSSTAYMQLNSLTSEDSAVYYCARKYFGPFVMDYWGQGTSVTVSS VL: EIFLTQSPAIMSASPGEKVTMTCSASTTVSYIHWYQQKSGTSPKRWLYDTSKIASGIPVRFSGSGSGTSYSLTISSMEAEDAATYYCQRWSTQPYTFGGGTKLEIKR
11 | 56700 | 0.0371 | 654 | – | – | – | – | – | – | – | 0.374 | 0.678 | 1.28 | – | Mutation 4 (antibody, V domains shown, other CDR sites as WT) VH: QVQLQQSGTELAKPGASVKFSCKASNYTFSTYWMYWIKQRPGQGLEWIGYLNPSSGHTKYNQRFKDKATLTADKSSSTAYMQLNSLTSEDSAVYYCARKYFGPFNMDYWGQGTSVTVSS VL: EIFLTQSPAIMSASPGEKVTMTCSASTTVSYEHWYQQKSGTSPKRWLYDQSKIASGIPVRFSGSGSGTSYSLTISSMEAEDAATYYCQVWSTQPYTFGGGTKLEIKR
12 | 978000 | 0.687 | 702 | – | – | – | – | – | – | – | 0.247 | 0.514 | 1.12 | – | Mutation 5 (antibody, V domains shown, other CDR sites as WT) VH: QVQLQQSGTELAKPGASVKFSCKASWYTFSTYWMYWIKQRPGQGLEWIGYLNPSSGHTVYNQRFKDKATLTADKSSSTAYMQLNSLTSEDSAVYYCARKYFGPFSMDYWGQGTSVTVSS VL: EIFLTQSPAIMSASPGEKVTMTCSASTTVSYSHWYQQKSGTSPKRWLYDYSKIASGIPVRFSGSGSGTSYSLTISSMEAEDAATYYCQEWSTQPYTFGGGTKLEIKR
13 | 15.6 | 0.000434 | 27800 | – | – | – | 0.528 | 1.15 | 1.61 | 2.13 | 2.17 | 2.3 | 2.33 | 0.224 | Mutation 2 (antibody, V domains shown, other CDR sites as WT) VH: QVQLQQSGTELAKPGASVKFSCKASLYTFSTYWMYWIKQRPGQGLEWIGYLNPSSGHTEYNQRFKDKATLTADKSSSTAYMQLNSLTSEDSAVYYCARKYFGPFIMDYWGQGTSVTVSS VL: EIFLTQSPAIMSASPGEKVTMTCSASTTVSYAHWYQQKSGTSPKRWLYDTSKIASGIPVRFSGSGSGTSYSLTISSMEAEDAATYYCQVWSTQPYTFGGGTKLEIKR
